Consider 1 molecule from publication PMC4277623, “Synthesis and Preliminary Evaluation of a New ^99mTc Labeled Substance P Analogue as a Potential Tumor Imaging Agent” (Iranian Journal of Pharmaceutical Research : IJPR, 2015).

Molecules are shown by their SMILES.

The nature of this series: Log P, octanol/PBS partition. In kind it is physicochemical. Conditions: shake-flask octanol/PBS, vortexed 10 min, γ-counter, three aliquots per layer averaged. On the procedure: In a 2 mL microtube, 0.5 mL of the^99mTc labeled peptides in PBS was mixed with 0.5 mL of octanol. The tube was vigorously vortexed over a period of 10 min and centrifuged at 4000g for 5 min. Three aliquots of 100 μL were sampled from eachlayer and counted in theγ counter. The averaged activities from the aqueous and the octanol layers were used to calculate the log p-values. The octanol-to-water partition coefficient (Po/w) of the radiolabeled peptides was calculated by dividing the counts of the octanol phase by that of the aqueous phase.

With `CC(C)C[C@H](NC(=O)CNC(=O)[C@H](Cc1ccc(O)cc1)NC(=O)[C@H](Cc1ccccc1)NC(=O)[C@H](CCC(N)=O)NC(=O)[C@H](CCC(N)=O)NC(=O)[C@@H]1CCCN1C(=O)[C@H](CCCCN)NC(=O)[C@@H]1CCCN1C(=O)[C@H](CCCNC(=N)N)NC(=O)c1ccc(NN)nc1)C(=O)N[C@@H](CC[S+](C)[O-])C(N)=O` (stereo partly shown) [^99mTc-HYNIC-Tyr^8-Met(O)^11-SP, metal not drawn], the lipophilicity (log P) is on record as -3.75.
